This passage reports Kd and stoichiometry N results from article PMC5645467.

The experiment deals with ΔIBB-importin α1 (as used for ITC) (mouse), P52293. Description: ITC; nano-ITC, 20 °C; GST-RCC1 (300 µM) injected in 2.0 µl increments into 195 µl of ΔIBB-importin α3 or α1 (100 µM); 20 mM Tris-HCl pH 8.0, 150 mM NaCl, 5 mM BME, 0.1 mM PMSF; single set of binding sites model; triplicate. Particulars: remark: other sources report otherwise.

B1: GST-RCC1 (full-length human RCC1, wild type), P18754 1-421 (natural protein)
chain: MSPKRIAKRRSPPADAIPKSKKVKVSHRSHSTEPGLVLTLGQGDVGQLGLGENVMERKKPALVSIPEDVVQAEAGGMHTVCLSKSGQVYSFGCNDEGALGRDTSVEGSEMVPGKVELQEKVVQVSAGDSHTAALTDDGRVFLWGSFRDNNGVIGLLEPMKKSMVPVQVQLDVPVVKVASGNDHLVMLTADGDLYTLGCGEQGQLGRVPELFANRGGRQGLERLLVPKCVMLKSRGSRGHVRFQDAFCGAYFTFAISHEGHVYGFGLSNYHQLGTPGTESCFIPQNLTSFKNSTKSWVGFSGGQHHTVCMDSEGKAYSLGRAEYGRLGLGEGAEEKSIPTLISRLPAVSSVACGASVGYAVTKDGRVFAWGMGTNYQLGTGQDEDAWSPVEMMGKQLENRVVLSVSSGGQHTVLLVKDKEQS
Usually Kd stands for the constant that tells how readily two partners part at equilibrium. Higher therefore signals lower affinity. The term stoichiometry N denotes the number of molecules, sites or subunits per partner or assembly. For the molecule B1, the Kd was 5.4 µM and the stoichiometry N was below 1.
